T1: TIFY8 (Arabidopsis, UniProt Q84MB2 1-361)
T1 sequence (looked up): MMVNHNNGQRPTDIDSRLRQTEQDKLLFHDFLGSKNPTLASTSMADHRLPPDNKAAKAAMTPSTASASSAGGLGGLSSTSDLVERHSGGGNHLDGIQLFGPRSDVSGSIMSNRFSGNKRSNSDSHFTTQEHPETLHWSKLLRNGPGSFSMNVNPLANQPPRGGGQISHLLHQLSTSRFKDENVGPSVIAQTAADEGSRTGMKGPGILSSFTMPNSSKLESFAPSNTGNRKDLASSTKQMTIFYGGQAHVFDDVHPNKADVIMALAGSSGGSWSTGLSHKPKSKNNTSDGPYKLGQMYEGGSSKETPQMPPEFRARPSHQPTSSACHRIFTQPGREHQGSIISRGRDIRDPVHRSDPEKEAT

T2: JAZ3 (Arabidopsis, UniProt Q9LVI4 1-352)
T2 construct: Endogenous prey in TAP; Y2H fusion in the yeast assays
T2 sequence (looked up): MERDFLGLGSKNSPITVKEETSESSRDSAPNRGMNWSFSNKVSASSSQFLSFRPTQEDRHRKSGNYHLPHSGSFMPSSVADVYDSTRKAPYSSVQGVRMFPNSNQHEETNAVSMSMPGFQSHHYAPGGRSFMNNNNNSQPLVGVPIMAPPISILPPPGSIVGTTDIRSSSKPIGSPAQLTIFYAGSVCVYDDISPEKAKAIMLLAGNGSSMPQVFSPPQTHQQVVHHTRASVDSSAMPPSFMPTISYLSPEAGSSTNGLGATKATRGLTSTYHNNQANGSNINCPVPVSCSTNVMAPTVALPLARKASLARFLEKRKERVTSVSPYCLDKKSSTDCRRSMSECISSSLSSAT

B1: PPD2 (PEAPOD2) (other, Arabidopsis thaliana, UniProt Q8GY55 1-315, looked up)
chain: MDVGVTTAKSILEKPLKLLTEEDISQLTREDCRKFLKEKGMRRPSWNKSQAIQQVLSLKALYEPGDDSGAGILRKILVSQPPNPPRVTTTLIEPRNELEACGRIPLQEDDGACHRRDSPRSAEFSGSSGQFVADKDSHKTVSVSPRSPAETNAVVGQMTIFYSGKVNVYDGVPPEKARSIMHFAANPIDLPENGIFASSRMISKPMSKEKMVELPQYGLEKAPASRDSDVEGQANRKVSLQRYLEKRKDRRFSKTKKAPGVASSSLEMFLNRQPRMNAAYSQNLSGTGHCESPENQTKSPNISVDLNSDLNSEDN
notes: Used as tagged bait in TAP from Arabidopsis cell culture and as a GAL4 fusion in Y2H/Y3H; the tags and fusion partners are not described; also called PPD2-HBH
B2: PPD1 (other, Arabidopsis thaliana, UniProt Q7XA73 1-313, looked up)
chain: MDVGVSPAKSILAKPLKLLTEEDISQLTREDCRKFLKDKGMRRPSWNKSQAIQQVLSLKALYEPGDDSGAGIFRKILVSQPVNPPRVTTTLIEPSNELEACGRVSYPEDNGACHRMDSPRSAEFSGGSGHFVSEKDGHKTTISPRSPAETSELVGQMTIFYSGKVNVYDGIPPEKARSIMHFAANPIDLPENGIFASSRMISKLISKEKMMELPQKGLEKANSSRDSGMEGQANRKVSLQRYREKRKDRKFSKAKKCPGVASSSLEMFLNCQPRMKAAYSQNLGCTGSPLHSQSPESQTKSPNLSVDLNSEGI
notes: Y2H fusion; also called PEAPOD1

Data set [1] deals with the molecule itself. The experiment in a line: yeast two-hybrid.
Data set [2] concerns the target T1, TIFY8. The data set can be described thus: tandem affinity purification (TAP) from Arabidopsis cell culture, Orbitrap mass spectrometry. From the text:
(§1) PPD proteins belong to the class II of the TIFY protein family together with 12 JAZ proteins […]. In the TIFY proteins, diverse domains are associated with different protein-protein interaction abilities, previously being able to isolate, by using tandem affinity purification (TAP), protein complexes from Arabidopsis cell cultures over-expressing JAZ proteins and to identify their interacting proteins (Pauwels et al., 2010). In order to determine the protein complex associated to PPD2, an updated and more sensitive protocol was applied using Orbitrap mass spectrometry (Eloy et al., 2012). […] To test this hypothesis, all 12 JAZ proteins, PPD1, PPD2 and TIFY8 for interaction with the PPD proteins were tested using yeast two-hybrid (Y2H) assays. These confirmed direct interaction with JAZ3 and TIFY8 and provided evidence of homo- and heterodimerization between PPD1 and PPD2. Moreover, the TAP analysis identified the TPL-adaptor protein NINJA and two proteins of yet unknown function, encoded by At3g24150 and At4g32295 and named KIX8 and KIX9 (see Table 3, Thakur et al., 2013).

The target of data set [3] is T2, JAZ3. The description is as above.
Excerpt: as §1

Data set [4] has as its target B1. The data set can be described thus: yeast two-hybrid.

As for B1, the binding result in data set [1], in data set [2] and in data set [3] was “binds” each time.

As for B2, the binding result in data set [1] and in data set [4] was “binds” in each case.

These data come from US20170159065A1 (VIB VZW, published 2017).
